Source: IntAct's records for PubMed 22609948

B1: Segment polarity protein dishevelled homolog DVL-2 (Mus musculus), Q60838 (parent)
chain: MAGSSAGGGGVGETKVIYHLDEEETPYLVKIPVPAERITLGDFKSVLQRPAGAKYFFKSMDQDFGVVKEEISDDNARLPCFNGRVVSWLVSSDTPQPEVAPPAHESRTELVPPPPPLPPLPPERTSGIGDSRPPSFHPNVSSSHENLEPETETESVVSLRRDRPRRRDSSEHGAGGHRPGGPSRLERHLAGYESSSTLMTSELESTSLGDSDEDDTMSRFSSSTEQSSASRLLKRHRRRRKQRPPRMERTSSFSSVTDSTMSLNIITVTLNMEKYNFLGISIVGQSNERGDGGIYIGSIMKGGAVAADGRIEPGDMLLQVNDMNFENMSNDDAVRVLRDIVHKPGPIVLTVAKCWDPSPQAYFTLPRNEPIQPIDPAAWVSHSAALTGAFPAYPGSSSMSTITSGSSLPDGCEGRGLSVHMDMASVTKAMAAPESGLEVRDRMWLKITIPNAFLGSDVVDWLYHHVEGFPERREARKYASGLLKAGLIRHTVNKITFSEQCYYVFGDLSGGCESYLVNLSLNDNDGSSGASDQDTLAPLPGATPWPLLPTFSYQYPAPHPYSPQPPPYHELSSYTYGGGSASSQHSEGSRSSGSTRSDGGAGRTGRPEERAPESKSGSGSESELSSRGGSLRRGGEPGGTGDGGPPPSRGSTGAPPNLRALPGLHPYGAPSGMALPYNPMMVVMMPPPPPPVSTAVQPPGAPPVRDLGSVPPELTASRQSFHMAMGNPSEFFVDVM

Variants of: B1
Settings: with plk1_human PLK1, P53350
Chain of plk1_human PLK1, P53350 (P53350 whole entry): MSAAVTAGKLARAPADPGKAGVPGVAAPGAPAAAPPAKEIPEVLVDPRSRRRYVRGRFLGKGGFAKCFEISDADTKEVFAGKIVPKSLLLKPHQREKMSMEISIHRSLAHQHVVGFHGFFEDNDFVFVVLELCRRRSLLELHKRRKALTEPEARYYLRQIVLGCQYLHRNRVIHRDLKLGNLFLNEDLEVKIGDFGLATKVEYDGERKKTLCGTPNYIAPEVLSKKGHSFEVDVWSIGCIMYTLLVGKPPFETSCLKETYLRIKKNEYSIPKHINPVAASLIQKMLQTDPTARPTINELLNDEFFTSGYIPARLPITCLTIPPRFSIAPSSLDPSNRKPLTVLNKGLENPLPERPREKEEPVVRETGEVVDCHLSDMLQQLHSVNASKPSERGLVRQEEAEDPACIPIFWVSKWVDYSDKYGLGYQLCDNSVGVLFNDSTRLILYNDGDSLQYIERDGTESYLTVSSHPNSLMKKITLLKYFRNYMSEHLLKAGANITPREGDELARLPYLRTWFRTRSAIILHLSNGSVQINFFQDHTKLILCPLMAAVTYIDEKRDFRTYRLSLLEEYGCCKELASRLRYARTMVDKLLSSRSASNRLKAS

effect of a mutation on the interaction | Variant
decreasing interaction | S398A

Variants of: B1
Settings: with plk1_human PLK1, P53350
Remark: another data set of the same source

effect of a mutation on the interaction | Variant
disrupting interaction | S143A

Variants of: B1
Settings: with plk1_human PLK1, P53350
Remark: another data set of the same source

effect of a mutation on the interaction | Variant
disrupting interaction | S143D

Variants of: B1
Settings: with plk1_human PLK1, P53350
Remark: another data set of the same source

effect of a mutation on the interaction | Variant
disrupting interaction | T224D

Variants of: B1
Settings: with plk1_human PLK1, P53350
Remark: another data set of the same source

effect of a mutation on the interaction | Variant
decreasing interaction | T224E

Variants of: B1
Settings: with plk1_human PLK1, P53350
Remark: another data set of the same source

effect of a mutation on the interaction | Variant
decreasing interaction | T224A
